Data on 22 substances can be found in patent US20240181040A1.

Read-outs that look alike come from different tables or passages of the source.

What is called koff is the first-order rate constant of dissociation. As a reminder, the kon is a measure of how fast the partners come together. Read a high kon as fast association. In general, Kd refers to the constant that tells how readily two partners part at equilibrium. Low values mean tighter binding, high ones weaker binding.

For experiment [1], the target named is BG505 SOSIP.664 envelope trimer protein (HIV-1 clade A, BG505). As to the kind of experiment: BLI, antibody on anti-human Fc biosensor, Env protein as analyte. On the technique in general: BLI is a label-free optical method that tracks binding on a fibre tip over time.
The target in experiment [2] is clade C HIV-1 1086.c ENV SOSIP trimer (HIV-1 clade C, 1086.c). The experiment is described as above.
In experiment [3] the target is BG505 SOSIP.664 envelope trimer protein (HIV-1 clade A, BG505). As to the kind of experiment: BLI, antibody on anti-human Fc biosensor, Env in solution, global fit.
In experiment [4] the target is clade C HIV-1 1086.c ENV SOSIP trimer (HIV-1 clade C, 1086.c). The description is as above.
Experiment [5] has as its target 1086.c gp160 wt on pseudo-typed virus (HIV-1 clade C, 1086.c). As to the kind of experiment: cell-based or functional assay.
Experiment [6] concerns the target BG505 T332N gp160 on pseudo-typed virus (HIV-1 clade A, BG505).
For experiment [7], the target named is HIV-1 Env 1086.C gp140C envelope glycoprotein (HIV-1 clade C, 1086.c). As to the kind of experiment: BLI, antibody on anti-human Fc biosensor, Env in solution, global fit.
For experiment [8], the target named is HIV-1 Env 1086.C D7gp120 envelope glycoprotein (HIV-1 clade C, 1086.c). The description is as above.
Experiment [9] addresses clade C HIV-1 1086.c ENV SOSIP trimer (HIV-1 clade C, 1086.c). The experiment is described as above. This is another data set of the same source.
The target in experiment [10] is HIV-1 Env 1086.C gp140C envelope glycoprotein (HIV-1 clade C, 1086.c). In words: BLI, antibody on anti-human Fc biosensor, Env protein as analyte.
In experiment [11] the target is HIV-1 Env 1086.C D7gp120 envelope glycoprotein (HIV-1 clade C, 1086.c). Described as above.
Experiment [12] addresses clade C HIV-1 1086.c ENV SOSIP trimer (HIV-1 clade C, 1086.c). The description is as above. The source holds these as a separate data set.
For experiment [13], the target named is 1086.c gp160 wt on pseudo-typed virus (HIV-1 clade C, 1086.c).
Experiment [14] concerns the target clade C HIV-1 1086.c ENV SOSIP trimer (HIV-1 clade C, 1086.c). In words: BLI, antibody on anti-human Fc biosensor, Env protein as analyte; text paragraph 65 prints 0.12 nM.
In experiment [15] the target is BG505 SOSIP.664 envelope trimer protein (HIV-1 clade A, BG505). In words: BLI, antibody on anti-human Fc biosensor, Env protein as analyte; text paragraph 65 prints <1.03x10^-3 nM.
Experiment [16] deals with clade C HIV-1 1086.c ENV SOSIP trimer (HIV-1 clade C, 1086.c). As to the kind of experiment: BLI, antibody on anti-human Fc biosensor, Env protein as analyte; the sheet has this in the 1086.C SOSIP rows, text paragraph 67 gives this KD for BG505 SOSIP.664.

As for PGT121 (antibody), the koff in experiment [1] is 5.35e-06 s⁻¹; in experiment [2], 7.93e-05 s⁻¹. In addition, the kon in [1] came out at 34900 M⁻¹ s⁻¹; in experiment [2] it was 460000 M⁻¹ s⁻¹. The results for the Kd in [3] and in [4] were 0.15 nM and 0.17 nM, respectively. In addition, the neutralization of pseudotyped virus in TZM-bl cells, IC50 in experiment [5] is under 0.001 µg/mL. Further, in experiment [6], the neutralisation IC50, pseudo-typed virus on TZM-bl cells stood at 0.003 µg/mL.

With PG09 (antibody), the koff in experiment [1] stood at 0.0001 s⁻¹; in experiment [2], 0.000475 s⁻¹. The kon in experiment [1] was 47600 M⁻¹ s⁻¹; in [2], 38200 M⁻¹ s⁻¹. Also, the values for the Kd in experiment [3] and in experiment [4] were 2.1 nM and 12.4 nM, respectively. For the same substance, the neutralisation IC50, pseudo-typed virus on TZM-bl cells in [6] amounted to 0.02 µg/mL.

For the substance CH58 (antibody), the Kd in [7] was 0.22 nM; in experiment [8], 9.31 nM; in [9], under 0.00103 nM; in experiment [4], under 0.001 nM. Also, the dissociation rate constant (koff) in [10] is 1.25e-05 s⁻¹; in [11], 0.0012 s⁻¹; in experiment [12] it was under 1e-07 s⁻¹. The kon in [10] amounted to 56800 M⁻¹ s⁻¹; in experiment [11], 129000 M⁻¹ s⁻¹; in experiment [12] it was 680000 M⁻¹ s⁻¹; in [2] it was 680000 M⁻¹ s⁻¹.

In experiment [1], 10-1074 (antibody) returned a koff of under 1e-07 s⁻¹ and a kon of 48600 M⁻¹ s⁻¹. In addition, the Kd in experiment [3] was under 0.001 nM. Besides, in [6], the neutralisation IC50, pseudo-typed virus on TZM-bl cells came to 0.003 µg/mL.

For the substance N6 (antibody), the koff in experiment [1] and in experiment [2] was under 1e-07 s⁻¹ in each case. In addition, the figures for the kon in experiment [1] and in experiment [2] were 42200 M⁻¹ s⁻¹ and 52300 M⁻¹ s⁻¹, respectively. Moreover, the Kd in experiment [3] was 0.00114 nM; in experiment [4] it was under 0.001 nM. For the same substance, the neutralisation IC50, pseudo-typed virus on TZM-bl cells turned out to be 0.031 µg/mL in experiment [6] and 0.023 µg/mL in experiment [13].

On to HJ16 (antibody), for which the koff is 0.000128 s⁻¹ in [1] and 0.000151 s⁻¹ in [2]. Besides, the kon in experiment [1] is 99500 M⁻¹ s⁻¹; in experiment [2], 42200 M⁻¹ s⁻¹. For the same substance, the Kd in experiment [3] amounted to 1.29 nM; in [4], 3.59 nM. Moreover, the figures for the neutralisation IC50, pseudo-typed virus on TZM-bl cells in [6] and in [13] were over 4 µg/mL and 3.82 µg/mL, respectively.

For VRC-CH31 (antibody), the neutralisation IC50, pseudo-typed virus on TZM-bl cells in experiment [6] was found to be 0.011 µg/mL; in [13], 2.16 µg/mL.

Consider 2G12 (antibody), for which the koff in [1] is 4.83e-08 s⁻¹; in [2] it was 5.61e-05 s⁻¹. Besides, the kon in experiment [1] is 254000 M⁻¹ s⁻¹; in experiment [2], 821000 M⁻¹ s⁻¹. The figures for the Kd in [3] and in experiment [4] were under 0.001 nM and 0.07 nM, respectively. The neutralisation IC50, pseudo-typed virus on TZM-bl cells in [6] was 0.29 µg/mL.

Take F105 (antibody): the koff in experiment [1] and in experiment [2] was under 1e-07 s⁻¹ in each case. Further, the kon in experiment [1] was found to be 3750 M⁻¹ s⁻¹; in experiment [2] it was 30400 M⁻¹ s⁻¹. Further, the Kd in experiment [3] came out at 0.0129 nM; in [4], 0.00172 nM.

For CH59 (antibody), the values for the Kd in experiment [7], in experiment [8] and in experiment [9] were 0.0012 nM, 1.81 nM and under 0.001 nM, respectively. Further, the koff was under 1e-07 s⁻¹ in [10], 0.000105 s⁻¹ in experiment [11] and under 1e-07 s⁻¹ in [12]. Moreover, the kon came out at 10200 M⁻¹ s⁻¹ in [10], 57900 M⁻¹ s⁻¹ in [11] and 63700 M⁻¹ s⁻¹ in [12]. The neutralisation IC50, pseudo-typed virus on TZM-bl cells in [13] is over 4 µg/mL.

In experiment [1], PG16 (antibody) gave a dissociation rate constant (koff) of 0.000358 s⁻¹ and an association rate constant (kon) of 48600 M⁻¹ s⁻¹. In experiment [3], this substance displayed a Kd of 7.35 nM. Further, the neutralisation IC50, pseudo-typed virus on TZM-bl cells in [6] stood at 0.011 µg/mL.

Regarding CD4-IgG2 (Fc fusion), in [5], the neutralization of pseudotyped virus in TZM-bl cells, IC50 is 1.72 µg/mL. The substance further yielded a neutralisation IC50, pseudo-typed virus on TZM-bl cells in [6] of over 4 µg/mL.

With CH106 (antibody), the koff in experiment [1] is under 1e-07 s⁻¹; in [2], 6.64e-05 s⁻¹. For the same substance, the kon in experiment [1] was 13700 M⁻¹ s⁻¹; in experiment [2] it was 12500 M⁻¹ s⁻¹. The figures for the Kd in experiment [3] and in experiment [4] were 0.00351 nM and 5.33 nM, respectively. Besides, the results for the neutralisation IC50, pseudo-typed virus on TZM-bl cells in experiment [6] and in experiment [13] were over 4 µg/mL and 3.63 µg/mL, respectively.

On to PGT145 (antibody), for which the koff in [1] was determined as 0.000482 s⁻¹; in experiment [2] it was 0.00194 s⁻¹. Besides, the kon in experiment [1] worked out at 187000 M⁻¹ s⁻¹; in experiment [2], 1.59e+06 M⁻¹ s⁻¹. The Kd in experiment [3] is 2.57 nM; in experiment [4], 1.22 nM. The substance also registered a neutralisation IC50, pseudo-typed virus on TZM-bl cells in [6] of under 0.001 µg/mL.

Consider 3BNC117 (antibody), for which the koff in [1] was under 1e-07 s⁻¹; in [2], 3.92e-05 s⁻¹. The values for the kon in [1] and in [2] were 44700 M⁻¹ s⁻¹ and 132000 M⁻¹ s⁻¹, respectively. The Kd in experiment [3] was found to be 0.00108 nM; in [4] it was 0.3 nM. Also, the neutralisation IC50, pseudo-typed virus on TZM-bl cells was 0.007 µg/mL in [6] and 0.21 µg/mL in experiment [13].

Consider 3869 (antibody), for which the koff in experiment [1] is 4.83e-08 s⁻¹; in [2], under 1e-07 s⁻¹. Further, the on-rate (kon) turned out to be 24200 M⁻¹ s⁻¹ in [1] and 2.56e+06 M⁻¹ s⁻¹ in [2]. Moreover, the Kd in [3] is 0.002 nM; in [4], under 0.001 nM. Besides, the neutralisation IC50, pseudo-typed virus on TZM-bl cells in experiment [13] is over 4 µg/mL.

In the case of IgG1 b12 (antibody), in experiment [2], the koff was 9.85e-05 s⁻¹. In addition, in [2], the kon was 811000 M⁻¹ s⁻¹. In addition, the Kd in experiment [4] was determined as 0.12 nM; in [14], 0.122 nM. This substance also showed a neutralisation IC50, pseudo-typed virus on TZM-bl cells in experiment [13] of over 4 µg/mL.

For the substance VRC03 (antibody), the koff in experiment [1] is under 1e-07 s⁻¹. The substance also gave a kon in experiment [1] of 78600 M⁻¹ s⁻¹. For the same substance, the Kd in experiment [15] is under 0.001 nM; in [3], under 0.00103 nM. Also, the neutralisation IC50, pseudo-typed virus on TZM-bl cells in experiment [6] was 2.83 µg/mL.

As for 35O22 (antibody), the Kd in [16] and in experiment [3] was 0.0013 nM throughout. Besides, the neutralisation IC50, pseudo-typed virus on TZM-bl cells in experiment [13] is over 4 µg/mL.

Turning to PGT126 (antibody), the koff in experiment [1] is under 1e-07 s⁻¹; in experiment [2] it was 0.000462 s⁻¹. Further, the kon amounted to 268000 M⁻¹ s⁻¹ in experiment [1] and 1.26e+06 M⁻¹ s⁻¹ in experiment [2]. Further, the Kd in experiment [3] was under 0.001 nM; in experiment [4], 0.37 nM. In experiment [6], the neutralisation IC50, pseudo-typed virus on TZM-bl cells amounted to 0.006 µg/mL.

Take PGT128 (antibody): the koff in [1] was under 1e-07 s⁻¹; in experiment [2], 0.000414 s⁻¹. The kon came out at 78600 M⁻¹ s⁻¹ in experiment [1] and 1.18e+06 M⁻¹ s⁻¹ in experiment [2]. The figures for the Kd in experiment [3] and in experiment [4] were under 0.001 nM and 0.35 nM, respectively. The neutralisation IC50, pseudo-typed virus on TZM-bl cells in experiment [6] came to 0.003 µg/mL.

On to VRC01 (antibody), for which the koff in [1] and in [2] was under 1e-07 s⁻¹ each time. Further, the kon in [1] was 23200 M⁻¹ s⁻¹; in experiment [2], 72800 M⁻¹ s⁻¹. For the same substance, the Kd was 0.0021 nM in [3] and under 0.001 nM in experiment [4]. Besides, the neutralisation IC50, pseudo-typed virus on TZM-bl cells was found to be 0.06 µg/mL in experiment [6] and 0.49 µg/mL in experiment [13].
